Assay results taken from patent US20250388683A1 (VETOQUINOL, published 2025).
Where a chain is given by its changes, count along the chain named. Read-outs that look alike come from different tables or passages of the source. Each block holds one binder with its values, some of them ahead of it.

Columns and labels:
Assay in all cases: cell-based or functional assay
[1] = biological target: T1, canine IL-31RA expressed on HEK-Blue STAT3 canine IL-31R reporter cells (with canine OSMR) (canine)
[2] = biological target: T1, canine IL-31RA expressed on HEK-Blue …; remark: listed apart in the source
[3] = biological target: T1, canine IL-31RA expressed on HEK-Blue …; remark: listed apart in the source
[4] = biological target: T1, canine IL-31RA expressed on HEK-Blue …; remark: listed apart in the source
[5] = biological target: T1, canine IL-31RA expressed on HEK-Blue …; remark: listed apart in the source
[6] = biological target: T1, canine IL-31RA expressed on HEK-Blue …; remark: listed apart in the source
[7] = biological target: T1, canine IL-31RA expressed on HEK-Blue …; remark: listed apart in the source
[8] = biological target: T1, canine IL-31RA expressed on HEK-Blue …; remark: listed apart in the source
[9] = biological target: T1, canine IL-31RA expressed on HEK-Blue …; remark: listed apart in the source
[10] = biological target: T1, canine IL-31RA expressed on HEK-Blue …; remark: listed apart in the source

B3: 8D3-VH-H/8D3-VL-Ev2 caninized antibody (antibody, V domains shown)
VH: EVTLQESGPGLVKPSQTLSLTCVASGFSIKDSFIHWLRQRPGRGLEWIGRIDPAQGATEYDANFQGRISITADTAKNQASLQLSSMTTEDTAVYYCARYYYGASHFDAWGQGTLVTVSS
VL: RIVMTQSPGSLAGSVGESVSINCKSSQSVTNDVTWYQQKPGEAPKVLIHYASQRYSGVPARFSGSGYGTDFTLTINNLQAEDVGDYFCQQDYASPFTFGQGTKLEIK
Mean IC50 (nM) (n = 3), HEK-Blue cell-based SEAP assay [5]: 0.59 nM

B4: 8D3-VH-Lv2/8D3-VL-Ev2 caninized antibody (antibody, V domains shown)
VH: B3 VH with D31S, A54L, D61N, A62P, N63V, I68L, A79V, Y100H, G102A, A103Q
VL: B3 VL
Mean IC50 (nM) (n = 3), HEK-Blue cell-based SEAP assay [5]: 0.38 nM

B5: 8D3-VH-Lv2/8D3-VL-G caninized antibody (antibody, V domains shown)
VH: B3 VH with D31S, A54L, D61N, A62P, N63V, I68L, A79V, Y100H, G102A, A103Q
VL: B3 VL with V33L, S56P
Mean IC50 (nM) (n = 3), HEK-Blue cell-based SEAP assay [5]: 0.41 nM

B6: 8D3-VH-L/8D3-VL-Ev2 caninized antibody (antibody, V domains shown)
VH: B3 VH with D31S, Q55F, D61N, A62P, N63A, I68F, T91S, Y100H, G102A
VL: B3 VL
Mean IC50 (nM) (n = 3), HEK-Blue cell-based SEAP assay [5]: 0.41 nM

B7: 8D3-VH-N/8D3-VL-Ev2 caninized antibody (antibody, V domains shown)
VH: B3 VH with D31S, R50Y, A54L, A57G, D61N, A62P, N63V, A79V, G102A, A103Q
VL: B3 VL
Mean IC50 (nM) (n = 3), HEK-Blue cell-based SEAP assay [5]: 0.54 nM

B8: 8D3-VH-Lv2/8D3-VL-H caninized antibody (antibody, V domains shown)
VH: B3 VH with D31S, A54L, D61N, A62P, N63V, I68L, A79V, Y100H, G102A, A103Q
VL: B3 VL with V33L, H49T, S56T
Mean IC50 (nM) (n = 3), HEK-Blue cell-based SEAP assay [5]: 0.54 nM

B9: 8D3-VH-N/8D3-VL-E caninized antibody (antibody, V domains shown)
VH: B3 VH with D31S, R50Y, A54L, A57G, D61N, A62P, N63V, A79V, G102A, A103Q
VL: B3 VL with G13V, Q38W, H49T, Q53I
Mean IC50 (nM) (n = 3), HEK-Blue cell-based SEAP assay [5]: 0.44 nM

B10: 8D3-VH-518H/8D3-VL-A caninized antibody (antibody, V domains shown)
VH: EVTLQESGPGLVKPSQTLSLTCVASGFSIKSSFIHWLRQRPGRGLEWIGYIDPLQGGTEYNPVFQGRLSITADTAKNQVSLQLSSMTTEDTAVYYCARYHYATSHFDAWGQGTLVTVSS
VL: B3 VL with V15A, S25A, A43R, Q53N, S56T, Y67S, L73F, A93S
Mean IC50 (nM) (n = 3), HEK-Blue cell-based SEAP assay [5]: 0.48 nM

B11: 8D3-VH-518/8D3-VL-Ev2 caninized antibody (antibody, V domains shown)
VH: VTLQESGPGLVKPSQTLSLTCVASGFSIKDSFIHWLRQRPGRGLEWIGYIDPLQGNTEYDPVFQGRLSITADTAKNQVSLQLSSMTTEDTAVYYCARYYYARSHFDAWGQGTLVTVSS
VL: B3 VL
Mean IC50 (nM) (n = 3), HEK-Blue cell-based SEAP assay [5]: 0.57 nM

B12: 8D3-VH-Lv2/8D3-VL-E caninized antibody (antibody, V domains shown)
VH: B10 VH with Y50R, G57A, T103Q
VL: B3 VL with G13V, Q38W, H49T, Q53I
Mean IC50 (nM) (n = 3), HEK-Blue cell-based SEAP assay [5]: 0.49 nM

B13: 8D3-VH-518/8D3-VL-A caninized antibody (antibody, V domains shown)
VH: B11 VH
VL: B3 VL with V15A, S25A, A43R, Q53N, S56T, Y67S, L73F, A93S
Mean IC50 (nM) (n = 3), HEK-Blue cell-based SEAP assay [5]: 0.54 nM

B14: 8D3-VH-L/8D3-VL-G caninized antibody (antibody, V domains shown)
VH: B3 VH with D31S, Q55F, D61N, A62P, N63A, I68F, T91S, Y100H, G102A
VL: B3 VL with V33L, S56P
Mean IC50 (nM) (n = 3), HEK-Blue cell-based SEAP assay [5]: 0.44 nM

The remaining lines, values ahead:

IC50 ratio (IC50 candidate/IC50 VTQ2101) [1]: 1 ratio | IC50 (read off the curve); STAT3-SEAP reporter, canine IL-31 stimulation [2]: ~800 pM
B1: scFv-Fc-VTQ2202 (scFv-VTQ2202-HLλcap-GS18-MOUSE IgG2A-LALAPG-Fc) (Fc fusion)
scFv: EVQLQQSGAELVKPGASVKLSCTASGFNIKSSFIHWLKQRPEQGLEWIGRIDPAFGATEYNPAFQGKVTITADTSSNTAYLQLSSLTSEDTAVYYCARYHYAASHFDAWGQGTTLTVSSGSTSGGGSGGGSGGGGSSRIVMNQTPKFLPISAGDRVIITCKSSQSVTNDLTWYQQKPGQSPKVLIHYASQRYTGVPDRFTGSGYGTDFTFTISTVQAEDLAVYFCQQDYASPFTFGSGTKLTVLGPRGPTIKPCPPCKCPAPNAAGGPSVFIFPPKIKDVLMISLSPIVTCVVVDVSEDDPDVQISWFVNNVEVHTAQTQTHREDYNSTLRVVSALPIQHQDWMSGKEFKCKVNNKDLGAPIERTISKPKGSVRAPQVYVLPPPEEEMTKKQVTLTCMVTDFMPEDIYVEWTNNGKTELNYKNTEPVLDSDGSYFMYSKLRVEKKNWVERNSYSCSVVHEGLHNHHTTKSFSRTPGK

IC50 ratio (IC50 candidate/IC50 VTQ2101) [3]: 1.7 ratio | IC50 (read off the curve); STAT3-SEAP reporter, canine IL-31 stimulation [4]: ~1000 pM
B2: scFv-VTQ2101-LHλcap-Fc (scFv-VTQ2101-LHλcap-GS18-Canine IgG2B-LALAPG-Fc) (Fc fusion)
scFv: RIVMTQSPGSLAGSVGESVSINCKSSQSVTNDLTWYQQKPGEAPKVLITYASQRYTGVPARFSGSGYGTDFTLTINNLQAEDVGDYFCQQDYASPFTFGGGTKLTVLGGSTSGGGSGGGSGGGGSSEVTLQESGPGLVKPSQTLSLTCVASGFSIKSSFIHWLRQRPGRGLEWIGRIDPAFGATEYNPAFQGRFSITADTAKNQASLQLSSMTTEDSAVYYCARYHYAASHFDAWGQGTLVTVSSPKRENGRVPRPPDCPKCPAPEAAGGPSVFIFPPKPKDTLLIARTPEVTCVVVDLDPEDPEVQISWFVDGKQMQTAKTQPREEQFNGTYRVVSVLPIGHQDWLKGKQFTCKVNNKALGSPIERTISKARGQAHQPSVYVLPPSREELSKNTVSLTCLIKDFFPPDIDVEWQSNGQQEPESKYRTTPPQLDEDGSYFLYSKLSVDKSRWQRGDTFICAVMHEALHNHYTQESLSHSPG

Mean IC50 (nM) (n = 3), HEK-Blue cell-based SEAP assay [5]: 0.44 nM
B15: 8D3-clone7v2-VH/8D3-clone 7-VL caninized antibody (antibody, V domains shown)
VH: B10 VH with Y50R, L68I, A75T, H100Y, T103Q
VL: B3 VL with V15A, V33L, S56T, D85V, A93S

IC50 ratio (IC50 candidate/IC50 VTQ2101) [3]: 2.2 ratio | IC50 (read off the curve); STAT3-SEAP reporter, canine IL-31 stimulation [6]: 1000 to 10000 pM
B16: scFv-VTQ2101-LH-Fc (scFv-VTQ2101-LH-GS18-Canine IgG2B-LALAPG-Fc) (Fc fusion)
scFv: RIVMTQSPGSLAGSVGESVSINCKSSQSVTNDLTWYQQKPGEAPKVLITYASQRYTGVPARFSGSGYGTDFTLTINNLQAEDVGDYFCQQDYASPFTFGQGTKLEIKGSTSGGGSGGGSGGGGSSEVTLQESGPGLVKPSQTLSLTCVASGFSIKSSFIHWLRQRPGRGLEWIGRIDPAFGATEYNPAFQGRFSITADTAKNQASLQLSSMTTEDSAVYYCARYHYAASHFDAWGQGTLVTVSSPKRENGRVPRPPDCPKCPAPEAAGGPSVFIFPPKPKDTLLIARTPEVTCVVVDLDPEDPEVQISWFVDGKQMQTAKTQPREEQFNGTYRVVSVLPIGHQDWLKGKQFTCKVNNKALGSPIERTISKARGQAHQPSVYVLPPSREELSKNTVSLTCLIKDFFPPDIDVEWQSNGQQEPESKYRTTPPQLDEDGSYFLYSKLSVDKSRWQRGDTFICAVMHEALHNHYTQESLSHSPG

IC50 ratio (IC50 candidate/IC50 VTQ2101) [3]: 1.5 ratio | IC50 (read off the curve); STAT3-SEAP reporter, canine IL-31 stimulation [7]: ~1000 pM
B17: scFv-HLλcap-Fc-VTQ2102 (scFv-VTQ2102-HLλcap-GS18-Canine IgG2B-LALAPG-Fc) (Fc fusion)
scFv: EVTLQESGPGLVKPSQTLSLTCVASGFSIKSSFIHWLRQRPGRGLEWIGRIDPAFGATEYNPAFQGRFSITADTAKNQASLQLSSMTTEDSAVYYCARYHYAASHFDAWGQGTLVTVSSGSTSGGGSGGGSGGGGSSRIVMTQSPGSLAGSVGESVSINCKSSQSVTNDLTWYQQKPGEAPKVLITYASQRYTGVPARFSGSGYGTDFTLTINNLQAEDVGDYFCQQDYASPFTFGGGTKLTVLGPKRENGRVPRPPDCPKCPAPEAAGGPSVFIFPPKPKDTLLIARTPEVTCVVVDLDPEDPEVQISWFVDGKQMQTAKTQPREEQFNGTYRVVSVLPIGHQDWLKGKQFTCKVNNKALGSPIERTISKARGQAHQPSVYVLPPSREELSKNTVSLTCLIKDFFPPDIDVEWQSNGQQEPESKYRTTPPQLDEDGSYFLYSKLSVDKSRWQRGDTFICAVMHEALHNHYTQESLSHSPG

IC50 ratio (IC50 candidate/IC50 VTQ2101) [1]: 1 ratio | IC50 (read off the curve); STAT3-SEAP reporter, canine IL-31 stimulation [8]: ~1000 pM
B18: scFv-Fc-VTQ2201 (scFv-VTQ2201-HLλcap-GS18-Mouse IgG2A-LALAPG-Fc) (Fc fusion)
scFv: EVQLQQSGAELVKPGASVKLSCTASGFNIKDSFIHWLKQRPEQGLEWIGRIDPANGNTEYDPNFQGKVTITADTSSNTAYLQLSSLTSEDTAVYYCARYYYGNSHFDAWGQGTTLTVSSGSTSGGGSGGGSGGGGSSRIVMNQTPKFLPISAGDRVIITCKASQSVTNDVTWYQQKPGQSPKVLIHYASNRYTGVPDRFTGSGYGTDFTFTISTVQAEDLAVYFCQQDYSSPFTFGSGTKLTVLGPRGPTIKPCPPCKCPAPNAAGGPSVFIFPPKIKDVLMISLSPIVTCVVVDVSEDDPDVQISWFVNNVEVHTAQTQTHREDYNSTLRVVSALPIQHQDWMSGKEFKCKVNNKDLGAPIERTISKPKGSVRAPQVYVLPPPEEEMTKKQVTLTCMVTDFMPEDIYVEWTNNGKTELNYKNTEPVLDSDGSYFMYSKLRVEKKNWVERNSYSCSVVHEGLHNHHTTKSFSRTPGK

IC50 ratio (IC50 candidate/IC50 VTQ2101) [9]: 5.6 ratio | IC50 (read off the curve); STAT3-SEAP reporter, canine IL-31 stimulation [10]: ~700 pM
B19: monoclonal anti-cIL-31RA antibody 28F12 (antibody, V domains shown)
VH: EVQLVESDGGLAQPGRSLKLSCAASGFTFSDYYMAWVRQAPTKGLEWVATISYDGSSTYYRDSVRGRFTISRDNAKSTLYLQMDSLRSEDTATYYCARGPLTDWAPNWFAYWGQGTLVTVSS
VL: DIQMTQSPASLSASLGETVTIQCQTSEDIYSGLAWYQQKPGKSPQFLIYGASRLEDGVPSRFSGSGSGTQYSLKISSMQTEDEGVYFCQQGLKYPNTFGAGTKLELK
